Results on two molecules are retold here after paper doi:10.1101/419721 (bioRxiv, 2018).

Assay [1] concerns the target T1, PDZ domain of ARHGEF12 (MBP-PDZ) (human, UniProt Q9NZN5 72-151).
T1 sequence: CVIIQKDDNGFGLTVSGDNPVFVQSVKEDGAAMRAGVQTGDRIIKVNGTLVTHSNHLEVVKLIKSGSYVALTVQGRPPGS
The assay is described as follows: ITC. Background: Isothermal titration calorimetry measures the heat released or taken up as one component is titrated into another.

The target in assay [2] is T2, PDZ domain of SYNJ2BP (MBP-PDZ) (human, UniProt P57105 13-100).
T2 sequence: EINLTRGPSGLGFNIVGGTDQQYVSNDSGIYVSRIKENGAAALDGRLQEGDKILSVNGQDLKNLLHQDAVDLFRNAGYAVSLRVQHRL
The experiment in a line: ITC.

No end group written: not given here.

B1: unphosphorylated RSK1 683-735 peptide (peptide)
peptide: QSQLSHQDLQLVKGAMAATYSALNSSKPTPQLKPIESSILAQRRVRKLPSTTL
As for B1, the binding result in assay [1] and in assay [2] was “binds” each time.

B2: phosphorylated RSK1 683-735 peptide (peptide)
peptide: B1 peptide
modifications: also: phosphorylated, sites not given here
As for B2, the binding result in assay [2] is listed as “binds”.
